Assay results from publication PMC6002859.

Target: Plk1 (UniProt P53350)
Assay: Myc-PP6R2 IP, Plk1 Western blot
Conditions: reference: wild type; sites S771

binding against the reference: lost
Substance: PP6R2 (SAPS2) (from UniProt O75170) S771A (PBD2 mutant)
